Biological target: T1, human CCX CKR with N-terminal Flag epitope, stably expressed on HEK293 cells, Q9NPB9
T1 chain: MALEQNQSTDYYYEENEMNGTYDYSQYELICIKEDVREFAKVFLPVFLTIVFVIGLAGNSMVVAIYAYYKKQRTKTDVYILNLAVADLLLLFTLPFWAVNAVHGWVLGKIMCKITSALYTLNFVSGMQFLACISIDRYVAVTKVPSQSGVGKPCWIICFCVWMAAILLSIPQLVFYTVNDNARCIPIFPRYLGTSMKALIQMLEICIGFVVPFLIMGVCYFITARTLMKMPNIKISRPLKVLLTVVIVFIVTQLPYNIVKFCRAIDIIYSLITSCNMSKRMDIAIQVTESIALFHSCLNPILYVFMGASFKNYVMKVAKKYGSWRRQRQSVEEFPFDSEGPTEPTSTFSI
Test: 125I-ELC competition binding
Conditions: ligand; chains chain; remark: other sources report otherwise

IC50: 140 nM
B1: BLC (B-lymphocyte chemoattractant), O43927 23-109 (protein)
chain: VLEVYYTSLRCRCVQESSVFIPRRFIDRIQILPRGNGCPRKEIIVWKKNKSIVCVDPQAEWIQRMMEVLRKRSSSTLPVPVFKRKIP
